Tested on: Zn(II)-bound Fur homodimer (Escherichia coli (expressed in MC4100))
Experiment: HinfI restriction site protection
Details: 0.5 uM (as monomer) sufficient to protect, not a Kd, 2 mM Mg2+, 3.2 nM pUC19-iuc, 20 mM Tris pH 8.0, 150 mM NaCl, 2 mM MgCl2, 0.1 mg/ml BSA, 10 min at room temperature, then HinfI (1 unit) 37 C 10 min

## pUC19-iuc (Fur-box of iucABCD promoter)
  binding: 0.5 µM

From PMC12538065
